The chains are these.
B1: histidine-tagged CsgB of E. coli (natural protein, E. coli K12, UniProt P0ABK7 22-151, looked up)
chain: AGYDLANSEYNFAVNELSKSSFNQAAIIGQAGTNNSAQLRQGGSKLLAVVAQEGSSNRAKIDQTGDYNLAYIDQAGSANDASISQGAYGNTAMIIQKGSGNKANITQYGTQKTAIVVQRQSQMAIRVTQR
notes: CsgB (curli minor subunit), E. coli K12, UniProt P0ABK7; Expressed from a pET11a plasmid; the construct is not described further; source: E. coli BL21-DE3 slyD KO, purified (nickel-nitrilotriacetic acid beads, from 7.5 M guanidine hydrochloride)
B2: FapC from the P. aeruginosa PAO1 strain with a C-terminal histidine tag (natural protein)
chain: MGNEGGWHPPKPNPQSNNKGGATALVVDTQQNYNNKVSNFGTLNNASVSGSIKDASGNVGVNVAAGDNNQQANAAALASADASFVFGTATASTSVLQSGYGNTLNNYSNPNTASLSNSANNVSGNLGVNVAAGNFNQQKNDLAAAVSNGQYSTAGSAASQTSTGNTTVNSANYAYGGTYVSLKLNADGSYKGTSDQIGDVYLDTWEGQTHPGGSNTGHIDVDSQAQGAKDLNHDGGAFAFKEKGDVDLKGTVSGFIPAIVGFKTPVTNNASLSNSLQNVSGNVGVNIAAGGGNQQSNSLSIAAGCSSCPAGGESLGF
notes: Used as fresh monomers, as fibrils and as sonicated fibril seeds; also called FapC-CterHis; histidine-tagged FapC; source: E. coli BL-21, purified (HisPur cobalt resin, lysis in 6 M guanidinium HCl)
B3: FapC (C-terminal histidine tag) labeled with Cyanine5 (natural protein)
chain: B2 chain
modifications: Cyanine5 attached by NHS ester to lysine residues (primary amines)
notes: FapC, Pseudomonas aeruginosa PAO1, UniProt Q9I2F0, without its signal peptide; same chain as m2; also called FapC labeled with Cyanine5; labeled FapC; source: E. coli BL-21, labeled on HisPur cobalt resin with Cyanine5 NHS ester, eluted and desalted
B4: FapB from the P. aeruginosa PAO1 strain with an N-terminal histidine tag (natural protein)
chain: DPLASRNRASIDDSGTYRGNFALNQAAGDAQQQSNVRVVAVGSAALVGSDQRQHLQLDASQPIAASASISGAALRGSGILGVNQGAGLGNQQINAFRLSLSNGPESLDDSVLAQSVALTKVSGSATPVPGGRSVSTDDRAFAGSSGVVQVNQSAGVGNQSMNTLSVRVME
notes: FapB, Pseudomonas aeruginosa PAO1, UniProt Q9I2E9; Used as fresh monomers, as fibrils and as sonicated fibril seeds; also called FapB-NterHis; histidine-tagged FapB; source: E. coli BL-21, purified (HisPur cobalt resin, lysis in 6 M guanidinium HCl)
B5: FapB (N-terminal histidine tag) labeled with Cyanine3 (natural protein)
chain: B4 chain
modifications: Cyanine3 attached by NHS ester to lysine residues (primary amines)
notes: FapB, Pseudomonas aeruginosa PAO1, UniProt Q9I2E9, 170 residues without the signal peptide; same chain as m1; also called FapB labeled with Cyanine3; labeled FapB; source: E. coli BL-21, labeled on HisPur cobalt resin with Cyanine3 NHS ester, eluted and desalted
B6: FapC from the P. aeruginosa PAO1 strain with an N-terminal histidine tag (natural protein)
chain: GNEGGWHPPKPNPQSNNKGGATALVVDTQQNYNNKVSNFGTLNNASVSGSIKDASGNVGVNVAAGDNNQQANAAALASADASFVFGTATASTSVLQSGYGNTLNNYSNPNTASLSNSANNVSGNLGVNVAAGNFNQQKNDLAAAVSNGQYSTAGSAASQTSTGNTTVNSANYAYGGTYVSLKLNADGSYKGTSDQIGDVYLDTWEGQTHPGGSNTGHIDVDSQAQGAKDLNHDGGAFAFKEKGDVDLKGTVSGFIPAIVGFKTPVTNNASLSNSLQNVSGNVGVNIAAGGGNQQSNSLSIAAGCSSCPAGGESLGF
notes: FapC, Pseudomonas aeruginosa PAO1, UniProt Q9I2F0; cloned into pET28b with the histidine tag at the N-terminal site; This construct probably holds the same stretch without the signal peptide; also called FapC with histidine tag at the N-terminus; source: E. coli BL-21, purified (HisPur cobalt resin, lysis in 6 M guanidinium HCl); not shown: His tag, N-terminal, kept

Data set [1] concerns the molecule itself. Nature of the data set: fibril formation, pelleting and formic acid dissolution with SDS-PAGE; 30 uM protein, 37 °C, 48 h, incubated individually; fibrils washed by centrifugation at 13,000g, sonicated and treated with formic acid.
The target in data set [2] is B4. As to the kind of experiment: cell-based or functional assay.
Data set [3] deals with the molecule itself. Nature of the data set: thioflavin T fibrillation kinetics + transmission electron microscopy; each protein alone, 25, 50 or 100 uM, universal buffer (Tris, Bis-Tris, sodium acetate) pH 4-9, 20 uM ThT, 37 °C, orbital shaking 300 rpm; fibrils seen by TEM after 80 h; self-assembly into amyloid fibrils.
Data set [4] concerns the molecule itself. Nature of the data set: transmission electron microscopy of fibrils; fluorophore-labeled FapB and FapC, negative staining with 1% uranyl acetate.
Data set [5] addresses B3. Nature of the data set: fluorescence microscopy of labeled purified proteins (colocalisation of monomers with preformed fibrils); Cyanine3-FapB and Cyanine5-FapC; monomers (0 h incubation) mixed with preformed fibrils (72 h incubation) of the other protein; imaged immediately after mixing and after 24 h; Leica DMI8, 20x. To be noted: both partners purified.

With B1, the binding result in data set [1] is given as “binds”.
Regarding B2, in data set [2], the “residual FapB monomer on SDS-PAGE after 9 days of coincubation 1:1 with FapC at pH 5, without formic acid, relative to untreated monomers (9% for FapB alone)” value stood at 52%. Moreover, the binding result in data set [3] is reported as “binds”.
On to B3, for which the binding result in data set [4] is “binds”.
Consider B4, for which the binding result in data set [3] was “binds”.
B5: the binding result in data set [5] and in data set [4] was “binds” in each case.
On to B6, for which the binding result in data set [3] is listed as “binds”.

The record behind these values is PMC11787515, “Resilience and charge-dependent fibrillation of functional amyloid: Interactions of Pseudomonas biofilm-associated FapB and FapC amyloids” (The Journal of Biological Chemistry, 2024).
